B1: LINE1-full (parent)
chain: UACGUAGGUGGUUUUCCCCUGAUAGUGCUAAGGGGGCCUGGAAGUUUGGACUGGGCAGAGCUCAACACAGCGUGGCAAAGUGGCUGUGGCUAGACUGCCUCUCUGGAUUCCUCGUCACUCAGCAGGGCAUCUCUGAGAGAAAUGCC

Variants of: B1
Experiment: self-cleavage, relative activity (ratio to wild type); higher = more cleavage; in vitro, sequencing; the parent is a self-cleaving ribozyme

| Variant | self-cleavage |
| --- | --- |
| G33A G55A | 0.73 |
| U52C U81G | 1.31 |
| U13G A79U | 0.44 |
| A67G A107U | 0.92 |
| C84U G89A | 0.04 |
| U85A U96G | 0.15 |
| A67G U96C | 0 |
| U13C U47C | 1.56 |
| U13C G106A | 1.51 |
| U39A G97A | 0.12 |
| A78G U134C | 1.49 |
| A78G G89A | 0.04 |
| C19U U26C | 1.32 |
| U96A U109A | 0.05 |
| A6G U134A | 0.52 |
| A42G C68U | 0.18 |
| U45A A92C | 0.14 |
| U52A A141G | 1.11 |
| U12G U39C | 1.61 |
| U85C A92G | 0.28 |
| A30U U108C | 0.41 |
| U108A A117G | 1.97 |
| C37U U100C | 1.66 |
| C3U A24U | 1.15 |

| Variant | self-cleavage |
| --- | --- |
| U108A U143C | 1.32 |
| A69G A121C | 0.51 |
| U1C U13C | 0.62 |
| G35A A50G | 0.58 |
| G27U A67G | 0.28 |
| U45C U81C | 0.94 |
| U46C A117C | 2.44 |
| A50G U81A | 1.3 |
| C18A U119C | 1.49 |
| U12C A138G | 1.37 |
| U13C A22U | 1.22 |
| A30G A140G | 0.99 |
| U45C A69G | 0.31 |
| A94G U134C | 0.44 |
| A79G A121G | 1.21 |
| U20A U85A | 0.11 |
| C56U A142U | 0.23 |
| C17U U23G | 1.11 |
| U52A U115A | 1.34 |
| A6U U104C | 1.02 |
| U39C U134A | 0.86 |
| A78U U96C | 0.17 |
| U9G C56U | 0.24 |
| A64U C133U | 0.49 |

| Variant | self-cleavage |
| --- | --- |
| U85A U87A | 0.07 |
| U62C U91C | 0.04 |
| A59U A107G | 1.96 |
| G86A U100C | 0.1 |
| G75A U100C | 1.5 |
| A69G C123G | 0.84 |
| A92G G126A | 0.13 |
| U47A U52A | 1.84 |
| A57G U62C | 0.08 |
| A24G U45G | 0 |
| U9C U102A | 1.11 |
| A31G U134C | 1.53 |
| C71U A117G | 0.64 |
| U73C C131G | 1.73 |
| A59G U85C | 0.09 |
| A42U U102C | 0.89 |
| A67G U130C | 0.65 |
| A78U G114A | 1.75 |
| A67G G93A | 0.02 |
| G8C U46C | 1.13 |
| U108C C131U | 2.2 |
| A59U U134G | 1.26 |
| C38G A43G | 1.6 |
| A117U C128U | 0.86 |

| Variant | self-cleavage |
| --- | --- |
| A78U G89C | 0.08 |
| C103U A121G | 1.58 |
| A31U A77G | 1.39 |
| U91A A121G | 0.84 |
| U119C A136U | 1.87 |
| U46C A141G | 1.41 |
| G72A A129G | 1.67 |
| U15A U130C | 0.67 |
| A30U U91C | 0.56 |
| U20C G36A | 1.23 |
| G137A | 1.19 |
| U12C A94U | 0.38 |
| U23A A94G | 0.47 |
| A78G U119A | 1.33 |
| G48A G144U | 1.46 |
| C56U U100C | 0.44 |
| U47C U119A | 1.86 |
| A6U A64C | 0.68 |
| U12C C146G | 1.03 |
| U9C A94G | 0.66 |
| G33U G126C | 1.21 |
| G25A G105A | 1.27 |
| U15A C113U | 0.44 |
| G4A U108G | 0.96 |

| Variant | self-cleavage |
| --- | --- |
| A2G A30U | 0.85 |
| G34A A129G | 1.08 |
| C98A U112C | 0.05 |
| A78U A138U | 2.15 |
| G72C U112C | 0.98 |
| U39A G54A | 0.66 |
| C18A A94G | 0.22 |
| G36U A78G | 1.5 |
| U15C A57U | 0.11 |
| A78U U87G | 0.23 |
| G86A A92G | 0.02 |
| U108C A142G | 1.94 |
| A57G A78G | 0.65 |
| U12C G97A | 0.22 |
| G11C U20C | 1.53 |
| C37G U132A | 1.23 |
| A69U G97A | 0.03 |
| U46A A140U | 1.12 |
| U62C A69G | 0.06 |
| U52A U73C | 2.24 |
| U47A U112C | 1.15 |
| A69G C98U | 0.04 |
| U12G A69U | 0.08 |
| G74A U81C | 0.78 |

| Variant | self-cleavage |
| --- | --- |
| A92G A117U | 0.08 |
| G80U U87C | 0.2 |
| U45C U46G | 1.37 |
| U87A U115A | 0.1 |
| A6G A121U | 0.99 |
| G86U A129G | 0.09 |
| A140U A141G | 1.41 |
| U23C U52A | 1.39 |
| U12A U45C | 0.82 |
| A64U U73C | 0.58 |
| A121C A129U | 1.9 |
| U1C U14G | 0.36 |
| U132C G139U | 2.66 |
| U62C C128A | 0.05 |
| U102C U109C | 1.38 |
| U23C A64C | 0.29 |
| A107U A141G | 1.52 |
| U52C G60A | 0.03 |
| C37U A78G | 0.96 |
| G21A G137A | 1.21 |
| A121U G125A | 1.23 |
| G60A U100C | 0.03 |
| A107C A129U | 2.42 |
| U12G U115G | 0 |

| Variant | self-cleavage |
| --- | --- |
| U12G U115C | 1.47 |
| U13C A77G | 1.85 |
| U62C A78C | 0 |
| U130C U143C | 1.53 |
| A31G A59G | 0.16 |
| U12C U85C | 0.12 |
| U5G A59G | 0.19 |
| U104C U119C | 1.96 |
| C63A | 0.06 |
| G48A A94U | 0.18 |
| G54U U81A | 0.39 |
| U47G C113A | 1.6 |
| U5C U132A | 1.98 |
| C63U U130C | 0.39 |
| G7U U112A | 1.06 |
| U81C U143A | 1.22 |
| A92G A129G | 0 |
| U26C G72C | 0 |
| A77G U112C | 2.18 |
| A50U A129G | 0.83 |
| U14C G127U | 1.73 |
| C84U A94G | 0.04 |
| G60A U115C | 0.04 |

— the RNAGym collection of RNA variant scans (doi:10.7554/elife.90254)
